# According to patent US20210046160A1 (Synthorx, Inc., priority 2019, published 2021):
# Tests used:
# [1] = MTD / toxicology study E3826-U1802 in naïve Balb/c mice (hematology, histopathology, organ weight, cytokines); format: in vivo; conditions: mouse, in vivo
# Protocol: A dose ranging study of P65_30kD was conducted in naïve female Balb/c mice at Crown Biosciences, Inc. (San Diego, Calif.). […] Blood samples were drawn via sub mandibular vein at 8 time points (0.25, 1, 4, 12, 24, 34, 48 & 72 h).
# A major of toxicity associated with high-dose aldesleukin is vascular leak syndrome and associated Cytokine Release Syndrome (CRS). […] The analysis performed was hematology, histopathology, organ weight, and cytokine analyses.
# [2] = PK study E3826-U1704 in naïve C57BL/6 mice (human IL-2 ELISA of plasma); format: in vivo
# Protocol: (§1) Terminal blood samples were collected via cardiac puncture at the points indicated. […] Plasma and blood cells (in both studies) and tumors in study E3826-U1803 were collected for PK and PD analyses.
# (§2) Bioanalysis of plasma samples was performed using a qualified human IL-2 ELISA assay (Abcam, Cambridge, UK). Concentrations of Aldesleukin, E62_30kD and P65_30kD and the internal standard in samples derived from plasma were determined using an ELISA assay. […] The PK data were imported into Phoenix WinNonlin v6.4 (Certara/Pharsight, Princeton, N.J.) for analysis. The group mean plasma concentration versus time data were analyzed with noncompartmental methods using an IV bolus administration model.
# [3] = target: T1, IL-2 receptor βγ complex (IL-2Rβ and IL-2Rγ subunits) (Homo sapiens, UniProt P14784+P31785); experiment: PathHunter IL-2 Cytokine Receptor assay, agonist mode, βγ cell line; format: cell-based; conditions: ratio of the EC50 values
# T1 construct: host or cells: recombinant human U2OS cell line (PathHunter)
# T1 sequence (P14784 27-551): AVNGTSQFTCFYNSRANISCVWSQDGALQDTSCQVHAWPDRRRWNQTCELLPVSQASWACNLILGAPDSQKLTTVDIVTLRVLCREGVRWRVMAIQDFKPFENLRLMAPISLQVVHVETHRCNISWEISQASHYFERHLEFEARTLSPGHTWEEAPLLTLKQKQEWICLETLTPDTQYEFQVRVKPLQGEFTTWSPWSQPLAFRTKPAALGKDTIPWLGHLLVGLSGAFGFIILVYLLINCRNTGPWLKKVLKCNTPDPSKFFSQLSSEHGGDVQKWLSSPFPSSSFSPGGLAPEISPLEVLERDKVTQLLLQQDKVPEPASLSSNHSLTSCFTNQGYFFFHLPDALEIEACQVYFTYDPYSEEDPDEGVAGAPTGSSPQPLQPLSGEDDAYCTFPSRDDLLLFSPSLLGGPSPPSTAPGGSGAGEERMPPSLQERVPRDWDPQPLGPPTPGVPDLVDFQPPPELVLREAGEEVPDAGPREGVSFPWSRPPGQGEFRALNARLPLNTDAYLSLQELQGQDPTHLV
# T1 sequence (P31785 23-369): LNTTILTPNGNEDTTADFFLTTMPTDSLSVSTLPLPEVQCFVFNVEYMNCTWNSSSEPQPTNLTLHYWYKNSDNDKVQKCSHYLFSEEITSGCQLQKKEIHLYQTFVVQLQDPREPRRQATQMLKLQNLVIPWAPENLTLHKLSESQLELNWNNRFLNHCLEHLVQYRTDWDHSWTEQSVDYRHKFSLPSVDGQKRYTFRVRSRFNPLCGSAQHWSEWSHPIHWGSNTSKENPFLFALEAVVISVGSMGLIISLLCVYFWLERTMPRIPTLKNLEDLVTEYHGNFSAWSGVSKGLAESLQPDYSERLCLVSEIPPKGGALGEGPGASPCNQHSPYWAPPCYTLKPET
# Protocol: PathHunter cell lines were expanded from freezer stocks according to standard procedures. Cells were seeded in a total volume of 20 μL into white walled, 384-well microplates and incubated for the appropriate time prior to testing.
# For agonist determination, cells were incubated with sample to induce response. Intermediate dilution of sample stocks was performed to generate 5× sample in assay buffer. About 5 μL of 5× sample was added to cells and incubated at 37° C. for 6 to 16 hours depending on the assay. Vehicle concentration was 1%.
# Assay signal was generated through a single addition of 12.5 or 15 μL (50% v/v) of PathHunter Detection reagent cocktail for agonist and antagonist assays respectively, followed by a one hour incubation at room temperature. For some assays, activity was detected using a high sensitivity detection reagent (PathHunter Flash Kit) to improve assay performance. In these assays, an equal volume of detection reagent (25 or 30 μL) was added to the wells, followed by a one hour incubation at room temperature. Microplates were read following signal generation with a PerkinElmer Envision™ instrument for chemiluminescent signal detection.
# Compound activity was analyzed using CBIS data analysis suite (ChemInnovation, CA). For agonist mode assays, percentage activity was calculated using the following Formula:
# % Activity=100%×(mean RLU of test sample−mean RLU of vehicle control)/(mean MAX RLU control ligand−mean RLU of vehicle control).
# A second cell line has been further engineered to express the IL-2Rα subunit. […] The assay was run in agonist mode to determine the EC50 of each test article, and comparison of dose-response curve profiles between IL2Rα positive and negative cell types allows determination of the contribution of IL2Rα to the observed activity.
# [4] = Plasma and tumor PK study E3826-U1803 in B16-F10 tumor-bearing C57BL/6 mice; format: in vivo
# Protocol: as §1, §2
# The tail end of the curves cross showing the plasma eliminates faster than the tumor (data not shown).
# [5] = PK/PD in cynomolgus monkeys, Study No. 20157276; conditions: cynomolgus monkey, 0.3 mg/kg single IV
# Protocol: The study was conducted at Charles River Laboratories, Inc. (Reno, Nev.) and PK data analysis was performed at NW Solutions (Seattle, Wash.). […] Both plasma and blood cells were collected for PK and PD analyses. Selected time points were used for PK, PD, cell population and hematology analysis.
# [6] = C57BL/6 female mice, single IV bolus 0.3 mg/kg, E62_5 kD from a separate study
# [7] = B16-F10 tumor-bearing C57BL/6 female mice, 3 mg/kg single IV dose
substance,measurement,setting,value
P65_30kD: SEQ ID NO: 25: IL-2 (SEQ ID NO: 4) with P65 replaced by AzK click-conjugated to methoxy linear 30 kDa PEG [Compound P65_30kD],systemic levels of IFNγ,[1],transient elevation
same,fold extended t1/2 compared to aldesleukin,[2]; 0.3 mg/kg IV,23 fold
same,fold reduced CL compared to aldesleukin,[2]; 0.3 mg/kg IV,about 198 fold
same,AUC0-t,[2]; [6],"45,600 h*ng/mL"
same,AUCINF,[2]; [6],"45,600 h*ng/mL"
same,CL,[2]; [6],6.58 mL/h/kg
same,Cmax,[2]; [6],"4,870 ng/mL"
same,Tmax,[2]; [6],1.8 min
same,Vss (distribution volume),[2]; [6],0.0824 L/kg
same,t½,[2]; [6],798 min
same,mean plasma concentrations measurable out to (post-dose),"[2]; single IV bolus, 120 h = last measured time point",120 h
same,βγ/αβγ ratio,[3],5
same,tumor:plasma AUC ratio,[4]; 1 mg/kg dose,9.7%
same,tumor:plasma AUC ratio,[4]; 3 mg/kg dose,8.4%
same,"AUC0-t, Plasma",[4]; [7],"656,000 h*ng/mL"
same,"AUC0-t, Tumor",[4]; [7],55.2 µg·h/mL
same,"AUCINF, Plasma",[4]; [7],"656,000 h*ng/mL"
same,"AUCINF, Tumor",[4]; [7],55.2 µg·h/mL
same,"Cmax, Plasma",[4]; [7],40 µg/mL
same,"Cmax, Tumor",[4]; [7],1.55 µg/mL
same,"Tmax, Plasma",[4]; [7],*2.00 h
same,"Tmax, Tumor",[4]; [7],480 min
same,"t½, Plasma",[4]; [7],756 min
same,"t½, Tumor",[4]; [7],1460 min
same,"AUC0-t, Animal 2705",[5],120 µg·h/mL
same,"AUC0-t, Mean",[5],121 µg·h/mL
same,"CL, Animal 2699",[5],2.47 mL/h/kg
same,"CL, Animal 2705",[5],2.49 mL/h/kg
same,"CL, Mean",[5],2.48 mL/h/kg
same,"Cmax, Animal 2699",[5],11 µg/mL
same,"Cmax, Animal 2705",[5],11.4 µg/mL
same,"Cmax, Mean",[5],11.2 µg/mL
same,"Tmax, Animal 2699",[5],30 min
same,"Tmax, Animal 2705",[5],30 min
same,"Vss, Animal 2699",[5],0.029 L/kg
same,"Vss, Animal 2705",[5],0.0321 L/kg
same,"Vss, Mean",[5],0.0305 L/kg
same,mean plasma concentrations measurable out to (post-dose),[5],168 h
same,"Tmax, Mean",[5]; 0.3 mg/kg,30 min
